The nanobody polyreactivity screen of Harvey et al. (2022)

Assay: yeast display, Sf9 membrane polyspecificity reagent, FACS + sequencing; frameworks hold sequencing errors
Outline: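 A synthetic nanobody library was expressed on Saccharomyces cerevisiae BJ5465 by galactose induction for 36–48 hours. The library was stained for 1 hour at 4 °C with 10% biotinylated, detergent-solubilized Sf9 membrane reagent and enriched with streptavidin microbeads before FACS. Low and high (top ~1%) gates were set on anti-HA fluorescence for expression and streptavidin fluorescence for reagent binding, and each polyreactivity label reflects the gate of origin.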

Sequence | polyreactivity (PSR sort gate)
QVQLVESGGGLVQAGGSLRLSCAASGIIFFKYAKGWYRQAPGKEKELVAAITSGGSTYYADSVKGRFTISRDNAKHTVYLQMNSLKPEDTAFYYCAAAGGRFIRYGYWGQGTQVTVSS | high polyreactivity
QVQLVESGGGLVQAGGSLRLSCAASGRTFWKYVMGWYRQAPGKERELVAVISRPAGSTYYADSVKGRFTISRDNAKNTVYLQMNSLKPEDTAVYYCAKRPKNKPVLGDYDQWGQGTQVTVSS | low polyreactivity
QVQLVESGGGLVQAGGSLRLTCAASGRTFKGYAMGWYRQEPGKERELVAAISYRGGSTYYADSVKGRFTISRDNAKNTVYLQMNSLKPEDTAVYYCAAQGRSKYRGYYYWGQGTQVTVSS | high polyreactivity
QVQLVESGGGLVQAGGSLRLSCAASGSIFGTYAMGWYRQAPGKERELVARISGGGSTYYADSVKGRFTISRDNAKNTVYLQMNSLKPEDTAVYYCNVRKWAYWSHAIIYNYWGQGTQVTVSS | high polyreactivity
QVQLVESGGGLVQAGGSLRLSCAASGLTLSGNAMGWYRQAPGKETELVAAITGRGGSTTYADSVKGRFTISRDNAKTTVYLQMNSLKPEDTAVYYCAADHAWYSLFDYWGQGTQVTVSS | low polyreactivity
QVQLVESGGGLVQAGGSLRLSCAASVSIFEWYAMGRYRQAHGKERELVAAINSGGSTYYADSVKGRFTISRDNAKNTVYLQMNSLKPEDTAVYYCAAGTQAHAYVVRPIEMDYWGQGTQVTVSS | low polyreactivity
QVQLVETGGGLVQAGGSLRLSCAASGIIFDVYAMGWYRPAPGKERELVAAISYGGGTTYYADSVKGRFTISRDNAKNTVYLQMNSLKPEDTAVYYCAADSYRSIGDDYWGQGTQVTVSS | high polyreactivity
QVQLVESGGGLVQAGGSLRLSCASSGSIFSTYAMGWYRQAPGKEMELVATIRRGGSTYYADSVKGPFTISRDNAKNTVYLQMNSLKPEDTELYYCAAAGGRFIRYGYWGQGTQVTVSS | high polyreactivity
QVQLVESGGGLVQAGGSLRLSCAASGSTFTYYAMGWYRQAPGKERELVAAITSGGSTYYADSVKGRFTISRDNAKNTVYLQMNSLKPEDTAVYYCNRGSWRYSTMEYWGQGTQVTVSS | high polyreactivity
QVQLVESGGGLVQAGGSLRLSCAASGITFEGYAMGWYRQAPGKERELVAAIRSSGTSTYYADSVKGRFTISRDNAKNTVYLQMYSLKPEDTAVYYCNRARSSSRYDYWGQGTQVTVSS | low polyreactivity
QVQLVESGGGLVQAGGSLRLSCAASGSTLGYYAMGWYRQAPGIVRELVAAISWSGGRTYYADSVKGRFTISRDYAKNTVYLQMKSLKPEDTAVYYCNALYRTHYTGSVYYSWGQGTQVSVSS | high polyreactivity
QDQLVESGGGFVQAGGSLRLSCAASGFIFVTYAMGWFRQAPGKERELVAAITWSTTSTYYADSVKGRFTISRDNAKNTVYLQMNSLKPDETAVYSCAKYYFQYKHDYWGQGTQVTVSS | low polyreactivity
QVQLVESGGGLVQAGGSLRLSCAASGRTFYNNAMGWYRQAPGKERELVATINNRGGTTYYADSVKGRFTISRDNAKNTVYLQMNSLKPEDSAVYYCAKSAQRYSYRYYYWGQGTQVTVSS | high polyreactivity
QVQLVESGGGLVQAGGSLRLSCDASGLNMYKNGMGWYRQAPGKERELVAVISRSGCRTYYADSVKGRFTISRDTAKNTVYVQMNSLKPEDTAVYYCAARQYGPRYTYYYWGQGTQVTVSS | high polyreactivity
QVQLVESGAGFFQAGGSLRVSCAASGRTFPVYAMGWYRHAPGNERELVARINSGGRTTYADSVKGRFTISRDNAKNTVYLQMISLNPEDTAVYYCNARSWYYVWRKGYRHGDYWGQGTQVTVSS | high polyreactivity
QVQLVESGGGLVQAGGSLRLSCAASGITFYVYTMGWYRQAPGKERELVAAINGSGGSTNYADSVKGRFTISRDNAKNTVYLLMNSLKPEDTAVYYCAADWSLRLYDYWGQGTQVTVSS | low polyreactivity
QVQLVESGGGLVQAGGSLRLICAASGFTFAKYAMGSYTQAPGKERQLVAGITGNSGTTYYADSVKGRFTISRDNAKNTVYLQMNSLKPEDTAVYYCAAEEVSWNGTGDYWGQGTQVTVSS | high polyreactivity
QVQLVESGGGLVQAGGSLRLSCAASGSTFVPNTMGWYRQAPGKERELVAAITYSGGSTYYADSVKGRFTISRDNAKNTVYLQMNSLKPEDTAVYYCAAEGTTWYYDMDYWGQGTQVTVSS | low polyreactivity
QVQLVESGGGLVQAGGSLRISCAASGLIFYSYAMGWYRQAPGKERELVAAISSGTRTYYADSVKGRFTISRDNAKNTVYLQMNSLKPEDTAVYYCAAVDAHKKRYPPSGRLYGYWGQGTQVTVSS | high polyreactivity
QVQLVESAGGLVQAGGSLRLSCDASGSTFVINAMGWYRPAPGKERELVAAISKSGGRTYYADSVKGRFTISRDNAKNTVYLQMNSLKPEDTAVYYCAAVSQRTRYGYWGQGTQVTVSS | high polyreactivity
QVQLVESGGGLVQAGGSLRLSCSASGFTFFYYAMGWYRQAPGKERELVASISSGGSSTYYADSVKGRFTISRDNAKNTVYLQMNSLKPEDTAVYYFAATSRYRGSWYYYWGQGTQVTVSS | high polyreactivity
QVQLVESGGGLVQAGGSLRLSCAASGYTFPKYAMGWYRQAPGKERELVAAITKRGGRTYYADSVKGRFTISRDNAKNTVYLQMNSLKPEDTAVYYCAVDLDGPEYSQVHYDYWGQGTQVTVSS | high polyreactivity

Sequence | polyreactivity (PSR sort gate)
QVQLVESGGGLVQAGGSLRLSCAASGLTFVNYAMGWYRQAPGKERELVATISKTGGSTYYADSVKGRFTISRDNAKNTVYLQMNSLKPEDTAVYYCAARRARRSGYYYWGQGTQVTVSS | high polyreactivity
QVQLVESGGGLVQAGGSLRLSCAASGSIFRGKAMGWSRQAPGKERELVAGINRAGSTKYADSVKGRFTISRDNAKNTVYLQMNSLKPEDTAVYYCAAVRYERGLWSDYWGLGTQVTVSS | high polyreactivity
QVQLVESGGGLVQAGGSLRLSCAASGRIVLGYAMGWYRQQPGKEMELVAAISRSGGGTFYADSVKGRFTISRDNAKNTVYLQMNSLKPEDTAVYYCNARRGRASGMDYWGQGTQVTVSS | high polyreactivity
QVQLVESGGGLVQAGGSLRLSCAASGRTFSNYMGWYRQAPGKERELVAAISWRGGTTYYADSVKGRFTISRDNAKNTVYLQMNSLKPEDTAVYYCNADVVRYRHWHRGDYWGQGTQVTVSS | low polyreactivity
QVQLVESGGGLFQAGGSILLSCPASGSTFDNYSMGWYRQAPGKERELVAGISWSGGSTFYADSVKGRFTISRDNAKYTVYLQMNSLKTEDTAVYYCAARIRYLDVRDNDNYYWGQGTQVTVSS | low polyreactivity
QVQLVESGGGLVQAGGSLRLSCAASGSTFSRNAMGWYRPAPGKERELVAAISSSGGRTYYADSVKGRFTISRDNAKNTVYLQMNSLKPQDTAVYYCAADWWRVEMDYWGQGTQVTVSS | low polyreactivity
QVQLVESGGGLVQAGGSLRLSCAASGLIFRWYAMGWYRQAPGKEREMVAAITSGGTTNYADSVTGRFTISRDNAKNTVYFQMNSLKPEHSAVYSCNAIVLSYSRYDYWGQGTQVTVSS | high polyreactivity
QVQLVESGGGLVQAGGSLRLSCAASGSIFRIYAMGWYRQAPGKERELVAAITKRGGSTYYADSVKGRFTISRDNAKNTVYLQMNSLKPEDTAVYYCAARFYSGYSYDYWGHGTQVTVSS | high polyreactivity
QVQLVESGGGLVQAGGSLRLSCAASGRTSFGYAMGWYRQAPGKERELVAVISIGGTTYYADSVKGRFTISRDNAKNTVYLQMNSLKPEDTAVYYCAKDAETYYWGSYKSLYDYWGQGTQVTVSS | low polyreactivity
QVQLVESGGVLDQAGRSLRLSCAASGRTFNRYAMGWYRQAPGKERDLVAAISSSGGSTYYADSVKGRFTISRDNAKNTVYLQMNSLKPEDTAVYYCNKGQYSHLNSYGDDYWGQGTQVTVSS | high polyreactivity
QVQLVESGGGLVQAGGSLRLSCAASGIIFWHYAMGWYRQAPGKERELVAAISSRGGYTYYADSVKGRFTISRDNAKNTVSLQMNSLKPEDTAVYYCNAGYYTHRYRFLVQGDYWGQGTQVTVSS | high polyreactivity
QVHLVESGGGLVQAGGSLRLSCAASGSTFPYYAMGWYRQAPGKEREWVAAITSSASTYFADSVKGRFTISRDNAKNTVYLQMNSLKPEDTAVYYCAVRSPYRLSSWRVGYWGQGTQVTVSS | high polyreactivity
QVQRVESGGGLVQAGGSLRLSCAASRITFSVNALRWYRHAPGKDRELVASISSGGSTNYADSVQGGFTISRDNAKNTVDLQMNSLKQEDTAVYYCNADVGFGSMDYCGQGTQVTVSS | low polyreactivity
QVQLVESGGGIVQAGGSLRLSCAAAGFTFWQYAMGWYRQAPGKERELVAAITWDGGSTYYADSVKGRFTISRDYAKNTVYLQMNSLKPEDTAVYYCAKLFGGTYYEYDYWGQGTQVTVSS | low polyreactivity
QVQLVESGGGLVQAGGSLRLSCAASGFIFWYYAMGWYRQAPGKERELVARITRIGGRTYYADSVKGRFTISRDNAKNTVYLQMNSLKPEDTAVYYCAKDVDKYRYDYWGQGTQVTVSS | high polyreactivity
QVQLVETGGGLVQAGGSHRLSCAASGFTFWYNAMGWYRPAPGKERELVAAIDWRGSSTYYADSVNGRFTISRDNAKNTVYLQMNSLKPEDTAVYYCAADFGDRYVYWAQGTQVTVSS | high polyreactivity
QVQLVESGGGLVQAGGSLRLSCAASGSIFGTNAMGWYRQAPGKERELVAAIDGGSTTYYADSVKGRFTISRDNAKNTVYLQMNSLKPEDTAVYYCAADGTRYLNDEGYAGYEYWGQGTQVTVSS | low polyreactivity
QVQLVESGGGLVQAGGSLRLSCAASGRILNINAMGWYRQAPGKERELVAAITWRGGRTFYADSVKGRFTISRDNAKNTVYLQMNSLKPEDTAVYYCAKGYRGYSYGYWGQGTQVTVSS | high polyreactivity
QVQLVESGGGLVQAGGSLRLSCAASGHIFFYYTMGWYRQAPGKERELVAGITIGGSTNYADSVKGRFTISRDNAKNTVYLQMNSLKPEDSAVYYCNVVKYVYIYSYWEYYYWGQGTQVTVSS | low polyreactivity
QVQLVESGGGLVQAGGSLRLSCAASGSTFRTYAMGWYRQAPGKERELVAAISYNGGSTYYADSVTGRFTISRDNAKNTVYLQMNILKPEDTEVYYFAKDQTGYWYNRYGYWGQGTQVTVSS | low polyreactivity
QVQLVESGGGLVQAGGSLGLSCAASGSILYYNAMGWYRQAPGKERELVAAISWSGGSKYDADSVKGRFTISRDNAKNTVYLQMNSQKPEDTAVYYCLYYRSDEMDYWGQGTQVTVSS | high polyreactivity
